From publication PMC4936896
Each block holds one substance with its values, some of them ahead of it.

Key:
[1] = molecular target: hyperstable HIV-1 cores (affinity-purified), as used for TRIM5α binding and imaging (HIV-1 (NL4-3)); test: co-sedimentation; settings: scale: CA per TRIM5α_(AGMpyg)
[2] = molecular target: hyperstable HIV-1 CA_(A14C,E45C) cores (HIV-1 (NL4-3)); test: cross-linking
[3] = molecular target: truncated TRIM5α_(AGMpyg) that lacked the SPRY domain (African green monkey (Chlorocebus pygerythrus)); test: SEC; final gel filtration step, HiLoad 16/600 Superdex 200 in 20 mM CHES, 100 nM ZnCl2, 1 mM TCEP, pH 10.0, 4°C; oligomer judged from retention time

Substance: African green monkey TRIM5α (Chlorocebus pygerythrus) (from UniProt Q5C8U4 1-515) (natural protein)
- stoichiometry N [1]: 7

Substance: hyperstable HIV-1 CA_(A14C,E45C) cores (complex)
- stoichiometry N [2]: 6

- stoichiometry N [3]: 2
Substance: truncated TRIM5α_(AGMpyg) that lacked the SPRY domain (domain or fragment)
